Experimental findings from patent publication US20240182553A1 (NANJING GENSCRIPT BIOTECH, published 2024) are described below.

The labels stand for the following.
T1: Ang2 protein (R&D system) (UniProt O15123 19-496)
T1 sequence (looked up): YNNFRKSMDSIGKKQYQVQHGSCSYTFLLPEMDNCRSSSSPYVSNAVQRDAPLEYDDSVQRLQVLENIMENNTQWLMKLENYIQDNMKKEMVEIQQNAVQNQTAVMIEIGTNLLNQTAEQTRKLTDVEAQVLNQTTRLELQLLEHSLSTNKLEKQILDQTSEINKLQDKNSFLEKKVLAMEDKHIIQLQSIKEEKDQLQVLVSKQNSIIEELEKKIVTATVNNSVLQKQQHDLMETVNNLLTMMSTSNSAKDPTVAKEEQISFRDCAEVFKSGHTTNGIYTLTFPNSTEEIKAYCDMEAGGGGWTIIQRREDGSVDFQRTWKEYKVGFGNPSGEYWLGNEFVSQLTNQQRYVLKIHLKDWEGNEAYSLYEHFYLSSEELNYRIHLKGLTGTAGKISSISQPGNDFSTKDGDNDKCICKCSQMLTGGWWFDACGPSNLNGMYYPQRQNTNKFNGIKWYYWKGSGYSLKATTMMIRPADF

B1: 7F10B2-VH3-vegfr-VL3 (bispecific antibody, human IgG4 S228P, kappa)
heavy: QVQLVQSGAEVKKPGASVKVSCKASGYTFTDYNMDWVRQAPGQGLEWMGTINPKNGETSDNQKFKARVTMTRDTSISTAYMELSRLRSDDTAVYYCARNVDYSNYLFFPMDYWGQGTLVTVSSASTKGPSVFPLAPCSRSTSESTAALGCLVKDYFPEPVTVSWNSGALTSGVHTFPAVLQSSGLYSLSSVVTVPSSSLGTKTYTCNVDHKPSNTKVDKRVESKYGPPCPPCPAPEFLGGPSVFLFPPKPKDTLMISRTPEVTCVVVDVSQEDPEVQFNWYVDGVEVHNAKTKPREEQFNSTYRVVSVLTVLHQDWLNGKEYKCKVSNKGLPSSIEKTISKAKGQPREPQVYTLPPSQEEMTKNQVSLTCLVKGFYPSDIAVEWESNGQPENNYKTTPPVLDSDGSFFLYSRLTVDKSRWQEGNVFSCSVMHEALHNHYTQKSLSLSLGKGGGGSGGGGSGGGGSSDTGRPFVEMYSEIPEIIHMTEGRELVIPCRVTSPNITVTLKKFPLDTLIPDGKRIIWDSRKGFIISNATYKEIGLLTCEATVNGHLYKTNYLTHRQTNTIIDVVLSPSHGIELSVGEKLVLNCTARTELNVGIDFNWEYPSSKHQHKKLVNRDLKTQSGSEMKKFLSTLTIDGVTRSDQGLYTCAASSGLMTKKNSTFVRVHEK
light: DIQMTQSPSSLSASVGDRVTITCKASQSVSNDVAWYQQKPGKAPKLLIYYASNRFTGVPSRFSGSGSGTDFTLTISSLQPEDFATYYCQQDYSSRTFGGGTKVEIKRTVAAPSVFIFPPSDEQLKSGTASVVCLLNNFYPREAKVQWKVDNALQSGNSQESVTEQDSKDSTYSLSSTLTLSKADYEKHKVYACEVTHQGLSSPVTKSFNRGEC
B2: hABTAA-VH-vegfrVL (bispecific antibody, human IgG4 S228P, kappa)
heavy chain: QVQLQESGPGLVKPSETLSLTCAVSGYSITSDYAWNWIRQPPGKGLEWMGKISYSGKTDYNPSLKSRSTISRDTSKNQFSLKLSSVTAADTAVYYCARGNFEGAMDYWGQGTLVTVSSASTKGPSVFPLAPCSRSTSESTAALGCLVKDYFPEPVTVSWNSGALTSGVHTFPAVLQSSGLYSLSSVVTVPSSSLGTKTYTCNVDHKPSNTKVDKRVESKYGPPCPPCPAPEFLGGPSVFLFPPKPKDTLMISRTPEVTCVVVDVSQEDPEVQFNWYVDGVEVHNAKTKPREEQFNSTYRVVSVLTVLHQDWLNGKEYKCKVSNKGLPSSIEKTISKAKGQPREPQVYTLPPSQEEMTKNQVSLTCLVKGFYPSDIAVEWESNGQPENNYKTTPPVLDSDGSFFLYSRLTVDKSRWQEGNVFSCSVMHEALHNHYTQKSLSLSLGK
light chain fusion polypeptide (VEGF-trap at N' of LC): SDTGRPFVEMYSEIPEIIHMTEGRELVIPCRVTSPNITVTLKKFPLDTLIPDGKRIIWDSRKGFIISNATYKEIGLLTCEATVNGHLYKTNYLTHRQTNTIIDVVLSPSHGIELSVGEKLVLNCTARTELNVGIDFNWEYPSSKHQHKKLVNRDLKTQSGSEMKKFLSTLTIDGVTRSDQGLYTCAASSGLMTKKNSTFVRVHEKGGGGSGGGGSGGGGSDIQMTQSPSSLSASVGDRVTITCKASQSVSNDVAWYQQKPGKAPKLLIYYASNRYPGVPSRFSGSGSGTDFTLTISSLQPEDFATYYCQQDYSSPWTFGQGTKLEIKRTVAAPSVFIFPPSDEQLKSGTASVVCLLNNFYPREAKVQWKVDNALQSGNSQESVTEQDSKDSTYSLSSTLTLSKADYEKHKVYACEVTHQGLSSPVTKSFNRGEC
B3: vegfr-5A7B9-VL1.1-VH3 (bispecific antibody, human IgG4 S228P, kappa)
heavy: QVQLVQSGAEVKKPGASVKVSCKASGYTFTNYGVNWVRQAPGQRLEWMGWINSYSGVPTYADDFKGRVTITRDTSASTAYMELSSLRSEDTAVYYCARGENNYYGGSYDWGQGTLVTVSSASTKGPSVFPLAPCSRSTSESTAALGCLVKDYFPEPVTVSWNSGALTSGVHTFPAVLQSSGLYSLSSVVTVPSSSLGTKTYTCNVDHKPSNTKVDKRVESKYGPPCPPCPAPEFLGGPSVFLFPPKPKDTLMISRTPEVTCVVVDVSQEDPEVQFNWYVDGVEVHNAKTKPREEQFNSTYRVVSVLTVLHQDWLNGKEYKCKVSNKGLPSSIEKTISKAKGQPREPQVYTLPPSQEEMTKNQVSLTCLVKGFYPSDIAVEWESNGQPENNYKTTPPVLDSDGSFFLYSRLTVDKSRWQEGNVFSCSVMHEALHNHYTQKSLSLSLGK
light: B2 light chain fusion polypeptide (VEGF-trap at N' of LC) with P276T, Y307F, W316L, Q320G
B4: hABTAA-VHvegfr-VL (bispecific antibody, human IgG4 S228P, kappa)
heavy: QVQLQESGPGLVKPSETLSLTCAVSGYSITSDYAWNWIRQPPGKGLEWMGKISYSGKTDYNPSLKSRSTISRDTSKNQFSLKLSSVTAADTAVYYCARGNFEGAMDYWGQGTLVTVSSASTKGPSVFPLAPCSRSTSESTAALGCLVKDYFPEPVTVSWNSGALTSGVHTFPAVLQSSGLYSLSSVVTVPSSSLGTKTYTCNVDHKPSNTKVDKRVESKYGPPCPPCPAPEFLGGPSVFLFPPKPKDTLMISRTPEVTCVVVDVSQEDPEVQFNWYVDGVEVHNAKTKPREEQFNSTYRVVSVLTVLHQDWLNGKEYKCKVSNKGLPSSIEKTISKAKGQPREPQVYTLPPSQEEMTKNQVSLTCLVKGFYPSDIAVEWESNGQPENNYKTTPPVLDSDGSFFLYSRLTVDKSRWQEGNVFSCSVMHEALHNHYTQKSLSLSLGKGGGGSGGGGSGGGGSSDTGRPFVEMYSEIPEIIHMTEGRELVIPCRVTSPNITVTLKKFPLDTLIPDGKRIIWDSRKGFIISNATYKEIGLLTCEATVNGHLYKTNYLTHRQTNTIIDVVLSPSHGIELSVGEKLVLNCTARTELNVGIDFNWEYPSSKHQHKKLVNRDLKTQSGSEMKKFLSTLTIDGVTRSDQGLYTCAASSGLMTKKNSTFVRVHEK
light: DIQMTQSPSSLSASVGDRVTITCKASQSVSNDVAWYQQKPGKAPKLLIYYASNRYPGVPSRFSGSGSGTDFTLTISSLQPEDFATYYCQQDYSSPWTFGQGTKLEIKRTVAAPSVFIFPPSDEQLKSGTASVVCLLNNFYPREAKVQWKVDNALQSGNSQESVTEQDSKDSTYSLSSTLTLSKADYEKHKVYACEVTHQGLSSPVTKSFNRGEC
B5: 31E2D4-VH4-vegfr-VL1 (bispecific antibody, human IgG4 S228P, kappa)
heavy: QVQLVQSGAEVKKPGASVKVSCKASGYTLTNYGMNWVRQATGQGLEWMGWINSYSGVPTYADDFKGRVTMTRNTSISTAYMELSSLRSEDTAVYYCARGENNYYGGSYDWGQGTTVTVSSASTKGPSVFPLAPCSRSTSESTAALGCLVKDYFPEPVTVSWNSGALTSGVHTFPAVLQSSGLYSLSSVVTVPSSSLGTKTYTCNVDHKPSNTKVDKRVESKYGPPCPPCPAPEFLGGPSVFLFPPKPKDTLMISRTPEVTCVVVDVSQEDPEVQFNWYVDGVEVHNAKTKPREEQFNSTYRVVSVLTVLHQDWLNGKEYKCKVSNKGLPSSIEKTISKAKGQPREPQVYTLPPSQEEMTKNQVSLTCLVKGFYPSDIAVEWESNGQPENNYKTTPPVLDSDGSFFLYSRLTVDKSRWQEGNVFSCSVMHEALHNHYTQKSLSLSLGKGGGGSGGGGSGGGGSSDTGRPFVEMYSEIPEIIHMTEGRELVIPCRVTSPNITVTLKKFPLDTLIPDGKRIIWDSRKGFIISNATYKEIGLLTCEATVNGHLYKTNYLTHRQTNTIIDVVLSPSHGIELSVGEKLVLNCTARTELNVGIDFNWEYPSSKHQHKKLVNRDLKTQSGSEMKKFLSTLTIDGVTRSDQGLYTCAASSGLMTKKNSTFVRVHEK
light: B4 light with P56T, W96L, Q100G
B6: 5F7D7-VH3-vegfr-VL5 (bispecific antibody, human IgG4 S228P, kappa)
heavy: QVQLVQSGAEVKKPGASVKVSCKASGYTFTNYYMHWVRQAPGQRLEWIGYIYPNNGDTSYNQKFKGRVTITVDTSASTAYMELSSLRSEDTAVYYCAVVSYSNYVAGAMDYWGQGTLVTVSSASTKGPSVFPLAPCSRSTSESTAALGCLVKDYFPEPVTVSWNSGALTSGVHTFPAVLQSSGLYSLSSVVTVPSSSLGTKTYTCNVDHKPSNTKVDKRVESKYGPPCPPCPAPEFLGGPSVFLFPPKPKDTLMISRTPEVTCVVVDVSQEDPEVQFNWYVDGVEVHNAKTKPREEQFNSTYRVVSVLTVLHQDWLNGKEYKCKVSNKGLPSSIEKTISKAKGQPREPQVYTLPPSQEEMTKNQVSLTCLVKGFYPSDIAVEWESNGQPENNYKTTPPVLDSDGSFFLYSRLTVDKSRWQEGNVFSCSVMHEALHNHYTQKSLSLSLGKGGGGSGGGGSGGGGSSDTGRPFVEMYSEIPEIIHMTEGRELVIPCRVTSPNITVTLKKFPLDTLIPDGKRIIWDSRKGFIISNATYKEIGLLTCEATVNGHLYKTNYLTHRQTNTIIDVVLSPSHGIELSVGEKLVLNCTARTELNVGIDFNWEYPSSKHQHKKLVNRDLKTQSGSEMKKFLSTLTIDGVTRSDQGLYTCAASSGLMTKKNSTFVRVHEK
light: B4 light with Y50F, P56T, S67Y, L73F, F83I, Y87F, W96Y, Q100G
B7: 7F10B2-VL3-vegfr-VH3 (bispecific antibody, human IgG4 S228P, kappa)
heavy: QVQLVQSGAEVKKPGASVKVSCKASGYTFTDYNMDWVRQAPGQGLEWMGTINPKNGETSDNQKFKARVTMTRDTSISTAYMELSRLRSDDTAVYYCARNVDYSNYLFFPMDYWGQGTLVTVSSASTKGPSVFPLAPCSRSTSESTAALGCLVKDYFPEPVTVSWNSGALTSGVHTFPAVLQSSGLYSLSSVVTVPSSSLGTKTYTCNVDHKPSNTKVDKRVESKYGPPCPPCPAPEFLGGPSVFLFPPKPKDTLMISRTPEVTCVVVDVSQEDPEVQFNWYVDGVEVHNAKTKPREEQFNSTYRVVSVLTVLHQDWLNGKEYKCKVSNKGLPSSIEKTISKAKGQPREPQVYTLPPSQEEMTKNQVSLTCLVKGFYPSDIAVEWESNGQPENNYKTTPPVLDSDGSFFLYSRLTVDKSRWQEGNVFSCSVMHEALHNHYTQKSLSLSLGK
light: DIQMTQSPSSLSASVGDRVTITCKASQSVSNDVAWYQQKPGKAPKLLIYYASNRFTGVPSRFSGSGSGTDFTLTISSLQPEDFATYYCQQDYSSRTFGGGTKVEIKRTVAAPSVFIFPPSDEQLKSGTASVVCLLNNFYPREAKVQWKVDNALQSGNSQESVTEQDSKDSTYSLSSTLTLSKADYEKHKVYACEVTHQGLSSPVTKSFNRGECESKYGPPSPPSPSDTGRPFVEMYSEIPEIIHMTEGRELVIPCRVTSPNITVTLKKFPLDTLIPDGKRIIWDSRKGFIISNATYKEIGLLTCEATVNGHLYKTNYLTHRQTNTIIDVVLSPSHGIELSVGEKLVLNCTARTELNVGIDFNWEYPSSKHQHKKLVNRDLKTQSGSEMKKFLSTLTIDGVTRSDQGLYTCAASSGLMTKKNSTFVRVHEK
B8: hABTAA anti-Ang2 antibody (antibody, human IgG4 S228P, kappa, V domains shown)
VH: QVQLQESGPGLVKPSETLSLTCAVSGYSITSDYAWNWIRQPPGKGLEWMGKISYSGKTDYNPSLKSRSTISRDTSKNQFSLKLSSVTAADTAVYYCARGNFEGAMDYWGQGTLVTVSS
VL: DIQMTQSPSSLSASVGDRVTITCKASQSVSNDVAWYQQKPGKAPKLLIYYASNRYPGVPSRFSGSGSGTDFTLTISSLQPEDFATYYCQQDYSSPWTFGQGTKLEIKR
B9: hABTAA-VH-VLvegfr (bispecific antibody, human IgG4 S228P, kappa)
heavy chain: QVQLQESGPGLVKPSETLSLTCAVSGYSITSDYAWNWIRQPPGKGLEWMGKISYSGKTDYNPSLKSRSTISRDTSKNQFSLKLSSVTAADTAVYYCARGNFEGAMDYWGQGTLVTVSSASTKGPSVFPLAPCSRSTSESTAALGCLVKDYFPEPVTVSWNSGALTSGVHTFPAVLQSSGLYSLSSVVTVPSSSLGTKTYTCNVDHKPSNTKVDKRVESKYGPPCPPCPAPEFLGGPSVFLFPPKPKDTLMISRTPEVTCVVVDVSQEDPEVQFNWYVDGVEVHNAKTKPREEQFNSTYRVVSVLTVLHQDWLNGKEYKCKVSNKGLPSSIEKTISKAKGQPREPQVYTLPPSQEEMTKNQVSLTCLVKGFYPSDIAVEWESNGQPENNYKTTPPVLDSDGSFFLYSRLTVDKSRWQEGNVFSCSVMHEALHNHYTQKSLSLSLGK
light chain fusion polypeptide (VEGF-trap at C' of LC): DIQMTQSPSSLSASVGDRVTITCKASQSVSNDVAWYQQKPGKAPKLLIYYASNRYPGVPSRFSGSGSGTDFTLTISSLQPEDFATYYCQQDYSSPWTFGQGTKLEIKRTVAAPSVFIFPPSDEQLKSGTASVVCLLNNFYPREAKVQWKVDNALQSGNSQESVTEQDSKDSTYSLSSTLTLSKADYEKHKVYACEVTHQGLSSPVTKSFNRGECESKYGPPSPPSPSDTGRPFVEMYSEIPEIIHMTEGRELVIPCRVTSPNITVTLKKFPLDTLIPDGKRIIWDSRKGFIISNATYKEIGLLTCEATVNGHLYKTNYLTHRQTNTIIDVVLSPSHGIELSVGEKLVLNCTARTELNVGIDFNWEYPSSKHQHKKLVNRDLKTQSGSEMKKFLSTLTIDGVTRSDQGLYTCAASSGLMTKKNSTFVRVHEK

Residue numbers refer to the chain shown, from its start.

The target of the assay is T1, Ang2 protein (R&D system). The assay can be described thus: cell-based or functional assay.
Take B1: the “EC50 (phospho-Akt Ser473 HTRF dose-response, HUVEC + Ang2)” value (“EC50” below) worked out at 2.59 nM and the “Span (phospho-Akt Ser473 HTRF dose-response, HUVEC + Ang2)” value (shortened to “Span”) is 7330 HTRF ratio (665nm/620nm).
In the case of B2, the “EC50” value worked out at 4.36 nM and the “Span” value is 6380 HTRF ratio (665nm/620nm).
For B3, the “EC50” value amounted to 4.72 nM and the “Span” value was 7740 HTRF ratio (665nm/620nm).
Regarding B4, the “EC50” value was 883 nM and the “Span” value was 14300 HTRF ratio (665nm/620nm).
B5: the “EC50” value came out at 2.39 nM and the “Span” value is 7380 HTRF ratio (665nm/620nm).
The corresponding values for B6 are roughly 2.12 nM and 7020 HTRF ratio (665nm/620nm).
As for B7, the “EC50” value was determined as 2.27 nM and the “Span” value is 7460 HTRF ratio (665nm/620nm).
For B8, in that order: 2.53 nM and 5590 HTRF ratio (665nm/620nm).
The corresponding values for B9 are 3.25 nM and 5440 HTRF ratio (665nm/620nm).
